The data set has as its target T1, TnsD C152S (Escherichia coli (transposon Tn7), UniProt P13991 1-508, C152S).
T1 sequence: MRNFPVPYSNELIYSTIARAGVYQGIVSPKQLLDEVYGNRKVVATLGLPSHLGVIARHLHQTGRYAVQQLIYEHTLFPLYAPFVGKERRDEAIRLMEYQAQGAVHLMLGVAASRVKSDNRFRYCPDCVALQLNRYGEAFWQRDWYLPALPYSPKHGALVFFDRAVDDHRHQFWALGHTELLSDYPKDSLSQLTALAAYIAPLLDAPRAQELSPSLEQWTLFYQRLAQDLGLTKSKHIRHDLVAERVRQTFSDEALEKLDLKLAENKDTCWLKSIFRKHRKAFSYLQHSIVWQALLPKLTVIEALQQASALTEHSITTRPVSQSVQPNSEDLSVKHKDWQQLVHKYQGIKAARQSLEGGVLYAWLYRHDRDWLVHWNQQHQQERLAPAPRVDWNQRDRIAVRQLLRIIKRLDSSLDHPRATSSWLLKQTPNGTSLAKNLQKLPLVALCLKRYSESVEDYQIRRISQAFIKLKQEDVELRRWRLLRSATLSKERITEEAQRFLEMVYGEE
Nature of the data set: EMSA; Gel-shift buffer not given (as described in ref. 6); TnsD stored in 500 mM KCl, 50 mM Tris-HCl pH 8.0, 1 mM EDTA, 2 mM DTT, 25% glycerol. Conditions: protein: recombinant; tags: intein-chitin tag, cleaved with DTT. On the technique in general: Mobility shift assays separate free from complexed probe on a gel.

Consider one molecule from publication PMC2918618, “Characterization of the TnsD-attTn7 complex that promotes site-specific insertion of Tn7” (Mobile DNA, 2010).

B1: attTn7 wt (+23 to +58) (dsDNA)
DNA 1: CCGCGTAACCTGGCAAAATCGGTTACGGTTGAGTAA
DNA 2: TTACTCAACCGTAACCGATTTTGCCAGGTTACGCGG
Consider B1, for which the binding signal is 0.05 relative to wt.
